Key:
Pub1p R3 (RRM3, TRRM) [1] = target: T1, Pub1p R3 (RRM3, TRRM) (Saccharomyces cerevisiae, UniProt P32588 315-414); assay: NMR titration; 1:1 protein:RNA; Kd n.d.; 25 mM potassium phosphate pH 7.0 (6.5-7.0 in general NMR methods), 25 mM NaCl, 0.5 mM DTT, 25 C; 100 µM protein, RNA up to 400 µM (R3) or 1:1 (R12); conditions: protein: recombinant; tags: TrxA-6xHis tag removed by TEV; chain copies: 2; single strand
T1 sequence: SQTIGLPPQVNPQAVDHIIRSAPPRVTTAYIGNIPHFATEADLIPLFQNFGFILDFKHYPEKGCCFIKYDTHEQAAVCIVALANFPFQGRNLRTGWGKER

Tif4631p (1–402) = target: T2, Tif4631p (1–402) (Saccharomyces cerevisiae, UniProt P39935 1-402); assay: NMR titration; 1H-15N HSQC of 100 µM 15N-labelled Tif4631p (1–402) with 120 µM unlabelled Pub1p R3 added; 25 mM potassium phosphate pH 7.0, 25 mM NaCl, 0.1 mM DTT, 25°C; conditions: both partners purified
T2 construct: Cloned 'following equivalent methods' to the Pub1p constructs (same modified pET28 vector); Unlabelled or 15N-labelled according to the NMR experiment; source: E. coli BL21(DE3), purified (HisTrap, TEV digestion, second nickel column, anion exchange MonoQ); not shown: thioredoxin A, N-terminal, cleaved; His6, internal, cleaved
T2 sequence (looked up): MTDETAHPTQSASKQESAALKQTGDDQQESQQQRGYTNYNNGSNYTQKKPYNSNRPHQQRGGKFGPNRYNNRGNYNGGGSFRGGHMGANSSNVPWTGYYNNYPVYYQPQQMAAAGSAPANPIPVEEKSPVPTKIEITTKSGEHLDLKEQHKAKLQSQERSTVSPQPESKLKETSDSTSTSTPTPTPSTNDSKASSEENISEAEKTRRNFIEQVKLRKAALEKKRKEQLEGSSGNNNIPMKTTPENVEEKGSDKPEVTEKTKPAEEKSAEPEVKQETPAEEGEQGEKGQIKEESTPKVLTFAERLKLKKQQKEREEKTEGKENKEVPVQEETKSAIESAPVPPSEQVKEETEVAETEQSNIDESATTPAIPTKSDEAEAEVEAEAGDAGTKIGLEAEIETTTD

Tif4631p (1–184) = target: T3, Tif4631p (1–184) (Saccharomyces cerevisiae, UniProt P39935 1-184); assay: cross-linking; glutaraldehyde by vapour diffusion, 16 h at 4°C; Pub1p proteins 10 µM, Tif4631p (1–402) 1 µM, Tif4631p (1–184) 4 µM; 25 mM potassium phosphate, 150 mM NaCl, 0.1 mM DTT, pH 8.0; 15% SDS-PAGE, silver stain; conditions: both partners purified
T3 construct: Tif4631p (yeast eIF4G1), Saccharomyces cerevisiae, residues 1-184; Cloned 'following equivalent methods' to the Pub1p constructs; source: E. coli BL21(DE3), purified (HisTrap, TEV digestion, second nickel column, anion exchange MonoQ); not shown: thioredoxin A, N-terminal, cleaved; His6, internal, cleaved
T3 sequence (looked up): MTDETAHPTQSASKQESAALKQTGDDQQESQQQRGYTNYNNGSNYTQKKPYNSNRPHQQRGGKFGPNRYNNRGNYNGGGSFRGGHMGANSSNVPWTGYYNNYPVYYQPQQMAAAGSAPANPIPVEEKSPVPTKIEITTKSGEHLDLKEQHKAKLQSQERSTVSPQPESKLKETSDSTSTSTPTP

Pub1p R3 (RRM3, TRRM) [2] = target: T1, Pub1p R3 (RRM3, TRRM); assay: NMR titration; 2:1 protein:RNA; 25 mM potassium phosphate pH 7.0 (6.5-7.0 in general NMR methods), 25 mM NaCl, 0.5 mM DTT, 25 C; 100 µM protein, RNA up to 400 µM (R3) or 1:1 (R12); conditions: protein: recombinant; tags: TrxA-6xHis tag removed by TEV; chain copies: 2; single strand
Pub1p R3 (RRM3, TRRM) [3] = target: T1, Pub1p R3 (RRM3, TRRM); assay: NMR titration; 1:1 protein:RNA; 25 mM potassium phosphate pH 7.0 (6.5-7.0 in general NMR methods), 25 mM NaCl, 0.5 mM DTT, 25 C; 100 µM protein, RNA up to 400 µM (R3) or 1:1 (R12); conditions: protein: recombinant; tags: TrxA-6xHis tag removed by TEV; chain copies: 2; single strand
Pub1p R12 (RRM1-RRM2) [4] = target: T4, Pub1p R12 (RRM1-RRM2) (Saccharomyces cerevisiae, UniProt P32588 32-242); assay: NMR titration; slow exchange; 25 mM potassium phosphate pH 7.0 (6.5-7.0 in general NMR methods), 25 mM NaCl, 0.5 mM DTT, 25 C; 100 µM protein, RNA up to 400 µM (R3) or 1:1 (R12); conditions: protein: recombinant; tags: TrxA-6xHis tag removed by TEV; single strand
T4 sequence: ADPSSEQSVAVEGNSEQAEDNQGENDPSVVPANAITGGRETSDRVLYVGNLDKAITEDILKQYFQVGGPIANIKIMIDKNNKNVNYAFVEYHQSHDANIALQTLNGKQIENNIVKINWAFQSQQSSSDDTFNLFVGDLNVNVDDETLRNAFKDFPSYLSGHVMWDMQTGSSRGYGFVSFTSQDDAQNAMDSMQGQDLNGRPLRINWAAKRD

Pub1p R12 (RRM1-RRM2) [5] = target: T4, Pub1p R12 (RRM1-RRM2); assay: NMR titration; intermediate exchange; 25 mM potassium phosphate pH 7.0 (6.5-7.0 in general NMR methods), 25 mM NaCl, 0.5 mM DTT, 25 C; 100 µM protein, RNA up to 400 µM (R3) or 1:1 (R12); conditions: protein: recombinant; tags: TrxA-6xHis tag removed by TEV; single strand

**Q.** Does UAUAUAUAUAUA (ssRNA) [(UA)6] bind (Pub1p R3 (RRM3, TRRM) [1])?
**A.** Result: binds

B1: Pub1p R3 (RRM3 domain, residues 315–414) (domain or fragment, Saccharomyces cerevisiae, UniProt P32588 315-414, looked up)
chain: SQTIGLPPQVNPQAVDHIIRSAPPRVTTAYIGNIPHFATEADLIPLFQNFGFILDFKHYPEKGCCFIKYDTHEQAAVCIVALANFPFQGRNLRTGWGKER
notes: also called Pub1p TRRM; Pub1p RRM3; source: E. coli BL21(DE3), purified (HisTrap, TEV digestion, second nickel column, cation exchange); not shown: thioredoxin A, N-terminal, cleaved; His6, internal, cleaved
**Q.** Does B1 bind (Tif4631p (1–402))?
**A.** Result: binds

**Q.** Does B1 bind (Tif4631p (1–184))?
**A.** Result: binds

**Q.** Does UUUUUUUUUU (ssRNA) [U10] bind (Pub1p R3 (RRM3, TRRM) [1])?
**A.** Result: binds

**Q.** Does UUUUUUUUUUUU (ssRNA) [U12] bind (Pub1p R3 (RRM3, TRRM) [1])?
**A.** Result: binds

**Q.** AAAAAAAAAAAAAA (ssRNA) [A14] was tested. Which Kd (Pub1p R3 (RRM3, TRRM) [2]) did it give?
**A.** The Kd was 78.5 µM.

**Q.** CUCUCUCUCUCU (ssRNA) [(CU)6] was tested. Which Kd (Pub1p R3 (RRM3, TRRM) [3]) did it give?
**A.** The Kd was 18.8 µM.

**Q.** For UUUUUUUUUUUUUU (ssRNA) [U14], which Kd (Pub1p R3 (RRM3, TRRM) [2]) is on record?
**A.** Its Kd is 2.16 µM.

**Q.** What about the Kd (Pub1p R12 (RRM1-RRM2) [4]) of the same binder?
**A.** Its Kd is < 0.25 µM.

**Q.** UAUAUAUAUAUAUA (ssRNA) [(UA)7] was tested. Which Kd (Pub1p R3 (RRM3, TRRM) [2]) did it give?
**A.** Its Kd is < 1 µM.

**Q.** And the Kd (Pub1p R12 (RRM1-RRM2) [5])?
**A.** Its Kd is 0.894 µM.

**Q.** AGAGAGAG (ssRNA) [(AG)4] was tested. Which Kd (Pub1p R3 (RRM3, TRRM) [3]) did it give?
**A.** Its Kd is 88.3 µM.
